Reference: patent US20220119448A1

Key:
[1] = molecular target: GLP-2R (GLP-2 receptor) on GLP-2R/Luc-CHO cells; test: cell-based or functional assay
GHR on Ba/f3-GHR cells = test: cell-based or functional assay

## GLP-2 (Hangzhou Chinese Peptide Biochemical Co., Ltd., Cat. No: GLUC-002A)
[1]
  in vitro cytological activity, EC50 (luciferase reporter, GLP-2R/Luc-CHO cells): 0.0052 µM

## hGH (human auxin) (from UniProt P01241 27-217) (ligand)
GHR on Ba/f3-GHR cells
  In vitro cytological activity, EC50 (Ba/f3-GHR cells, MTT): 0.54 nM
